± gives the standard deviation of the averaged measurements.

The data set in a line: total protein half-life in vivo (active degradation + dilution); higher = more stable protein.
The mark [1] stands for this setting: E. coli NCM3722 delta-clpP delta-lon delta-hslV, growth: N-lim chemostat, doubling time 6 h.
Setting [2] is: E. coli NCM3722 delta-clpP, growth: N-lim chemostat, doubling time 6 h.
Where [3] appears, read: E. coli NCM3722 delta-hslV, growth: N-lim chemostat, doubling time 6 h.
The mark [4] stands for this setting: E. coli NCM3722 delta-lon, growth: N-lim chemostat, doubling time 6 h.
The mark [5] stands for this setting: E. coli NCM3722 delta-smpB, growth: N-lim chemostat, doubling time 6 h.
Setting [6] is: wild type E. coli NCM3722, growth: C-lim chemostat, doubling time 3 h.
[7] abbreviates: wild type E. coli NCM3722, growth: C-lim chemostat, doubling time 6 h.
Setting [8] is: wild type E. coli NCM3722, growth: C-lim chemostat, doubling time 12 h.
Where [9] appears, read: wild type E. coli NCM3722, growth: N-lim chemostat, doubling time 6 h.
[10] abbreviates: wild type E. coli NCM3722, growth: N-lim chemostat, doubling time 12 h.
[11] abbreviates: wild type E. coli NCM3722, growth: P-lim chemostat, doubling time 6 h.
Setting [12] is: wild type E. coli NCM3722, growth: P-lim chemostat, doubling time 12 h.

Consider “MQRARCYLIGETAVVLELEPPVTLASQKRIWRLAQRLVDMPNVVEAIPGMNNITVILRNPESLALDAIERLQRWWEESEALEPESRFIEIPVVYGGAGGPDLAVVAAHCGLSEKQVVELHSSVEYVVWFLGFQPGFPYLGSLPEQLHTPRRAEPRLLVPAGSVGIGGPQTGVYPLATPGGWQLIGHTSLSLFDPARDEPILLRPGDSVRFVPQKEGVC [P0AAV4]”, for which the “total protein half-life in vivo” value by setting is: under setting [1], 5.48 ± 0.23 h; under setting [2], 5.44 ± 0.087 h; under setting [3], 5.73 ± 0.79 h; under setting [4], 7.2 ± 0.64 h; under setting [5], 4.972 ± 0.042 h; under setting [6], 3.51 ± 0.27 h. Further, the “total protein half-life in vivo” value under setting [7] was 6.26 ± 0.1 h; the “total protein half-life in vivo” value under setting [8] is 11.3 ± 0.43 h; the “total protein half-life in vivo” value under setting [9] was determined as 5.41 ± 0.97 h; the “total protein half-life in vivo” value under setting [10] turned out to be 11.3 ± 0.39 h; the “total protein half-life in vivo” value under setting [11] was found to be 6.04 ± 0.51 h.

For the sequence “MQKNAAHTYAISSLLVLSLTGCAWIPSTPLVQGATSAQPVPGPTPVANGSIFQSAQPINYGYQPLFEDRRPRNIGDTLTIVLQENVSASKSSSANASRDGKTNFGFDTVPRYLQGLFGNARADVEASGGNTFNGKGGANASNTFSGTLTVTVDQVLVNGNLHVVGEKQIAINQGTEFIRFSGVVNPRTISGSNTVPSTQVADARIEYVGNGYINEAQNMGWLQRFFLNLSPM [P0A6S0]”, the “total protein half-life in vivo” value came to 4.87 ± 0.27 h under setting [1]; 5.09 ± 0.14 h under setting [2]; 2.82 ± 0.29 h under setting [6]; 4.64 ± 0.58 h under setting [7]; 7.92 ± 0.56 h under setting [8]; 4.97 h under setting [9]. Further, the “total protein half-life in vivo” value reads like this: under setting [10], 9.12 h; under setting [11], 5.6 h; under setting [12], 11.5 ± 0.65 h.

On to “MNKFEDIRGVAFDLDGTLVDSAPGLAAAVDMALYALELPVAGEERVITWIGNGADVLMERALTWARQERATQRKTMGKPPVDDDIPAEEQVRILRKLFDRYYGEVAEEGTFLFPHVADTLGALQAKGLPLGLVTNKPTPFVAPLLEALDIAKYFSVVIGGDDVQNKKPHPDPLLLVAERMGIAPQQMLFVGDSRNDIQAAKAAGCPSVGLTYGYNYGEAIDLSQPDVIYQSINDLLPALGLPHSENQESKND”, for which the “total protein half-life in vivo” value came out at 3.53 ± 0.37 h under setting [1]; 3.12 ± 0.096 h under setting [2]; 2.83 h under setting [3]; 4.24 ± 1.1 h under setting [4]; 3.05 ± 0.14 h under setting [5]; 3.21 ± 0.34 h under setting [6]. For the same sequence, the “total protein half-life in vivo” value runs as follows: under setting [7], 5.56 ± 0.92 h; under setting [8], 8.69 ± 0.53 h; under setting [9], 2.87 ± 0.17 h; under setting [10], 4.01 ± 0.23 h; under setting [11], 4.14 ± 1 h; under setting [12], 10.5 ± 1.2 h.

As to “MVSRYVPDMGDLIWVDFDPTKGSEQAGHRPAVVLSPFMYNNKTGMCLCVPCTTQSKGYPFEVVLSGQERDGVALADQVKSIAWRARGATKKGTVAPEELQLIKAKINVLIG [P0AE70]”, the “total protein half-life in vivo” value was found to be 6.61 ± 0.43 h under setting [1]; 6.264 ± 0.046 h under setting [3]; 6.6 ± 0.43 h under setting [4]; 5.59 ± 0.098 h under setting [5]; 3.16 ± 0.28 h under setting [6]; 5.35 ± 0.39 h under setting [7]. For the same sequence, the “total protein half-life in vivo” value under setting [9] came to 4.02 ± 0.46 h, the “total protein half-life in vivo” value under setting [10] came to 9.87 ± 1.7 h, the “total protein half-life in vivo” value under setting [11] amounted to 6.19 h and the “total protein half-life in vivo” value under setting [12] is 11 ± 0.37 h.

In the case of “MLSLYEKIKIRLIILFLLAALSFIGLFFIINYQLVSERAVKRADSRFELIQKNVGYFFKDIERSALTLKDSLYLLKNTEEIQRAVILKMEMMPFLDSVGLVLDDNKYYLFSRRANDKIVVYHQEQVNGPLVDESGRVIFADFNPSKRPWSVASDDSNNSWNPAYNCFDRPGKKCISFTLHINGKDHDLLAVDKIHVDLNWRYLNEYLDQISANDEVLFLKQGHEIIAKNQLAREKLIIYNSEGNYNIIDSVDTEYIEKTSAVPNNALFEIYFYYPGGNLLNASDKLFYLPFAFIIIVLLVVYLMTTRVFRRQFSEMTELVNTLAFLPDSTDQIEALKIREGDAKEIISIKNSIAEMKDAEIERSNKLLSLISYDQESGFIKNMAIIESNNNQYLAVGIIKLCGLEAVEAVFGVDERNKIVRKLCQRIAEKYAQCCDIVTFNADLYLLLCRENVQTFTRKIAMVNDFDSSFGYRNLRIHKSAICEPLQGENAWSYAEKLKLAISSIRDHMFSEFIFCDDAKLNEIEENIWIARNIRHAMEIGELFLVYQPIVDINTRAILGAEALCRWVSAERGIISPLKFITIAEDIGFINELGYQIIKTAMGEFRHFSQRASLKDDFLLHINVSPWQLNEPHFHERFTTIMKENGLKANSLCVEITETVIERINEHFYLNIEQLRKQGVRISIDDFGTGLSNLKRFYEINPDSIKVDSQFTGDIFGTAGKIVRIIFDLARYNRIPVIAEGVESEDVARELIKLGCVQAQGYLYQKPMPFSAWDKSGKLVKE”, the “total protein half-life in vivo” value runs as follows: under setting [1], 5.7 ± 1.7 h; under setting [2], 7.04 ± 0.45 h; under setting [4], 6.67 ± 0.23 h; under setting [5], 6.334 ± 0.039 h; under setting [6], 3 ± 0.23 h; under setting [7], 5.9 ± 0.19 h. The “total protein half-life in vivo” value was 5.88 ± 0.38 h under setting [9], 12.8 ± 1.2 h under setting [10], 6.03 ± 0.13 h under setting [11] and 11.8 ± 1 h under setting [12].
